Results on three molecules are retold here after patent US20060040325A1 (AstraZeneca / MedImmune, published 2006).

The target of assay [1] is T1, FcγRIIIA-streptavidin fusion protein (tetramer) (human; Streptomyces avidinii, UniProt P08637 17-208).
T1 construct: extracellular domain; also called FcγRIIIA tetramer; Fcγtetramer; not shown: streptavidin, amplified with primers SA1/SA2 from genomic DNA of Streptomyces avidinii
The assay can be described thus: ELISA: antibody captured on protein A/G, FcγRIIIA tetramer, biotin-HRP, OD450. The procedure:
ELISA for FcγRIIIA Tetramer Binding: Microtiter plates were coated with protein A/G (PIERCE) solution (0.25 μg/ml) and incubated at 4° C. overnight. The plates were then washed with PB S/0.1% Tween and any remaining binding sites were blocked with 1% BSA. 50 μl of test antibody at 1:1 dilution (from 5000 ng/ml to 4.9 ng/ml), was added to each well and inclubated for 60 min at 37° C. 50 μl of 1:500 dilution of the Fcγtetramer was added to each well and incubated for 60 min at 37° C. followed by washing. 50 μl of 1:1000 dilution of biotin-conjugated HRP (PIERCE) was added to each well and incubated for 30 min at 37° C. Detection was carried out by adding 30 μl of tetramethylbenzidine (TMB) substrate (Pierce) followed by neutralization with 30 μl of 0.2 M H₂SO₄. The absorbance was read at 450 nm.
For orientation: An ELISA detects its analyte on a solid surface through an enzyme-linked reagent.

For assay [2], the target named is T2, human C1q complement protein (human, UniProt P02745 23-245; P02746 28-253; P02747 29-245).
T2 construct: Bought protein ('Quidal, SanDiego')
The assay can be described thus: ELISA: antibody coated on the plate, human C1q, anti-C1q antibody, HRP conjugate, OD450. As for the experimental part: ELISA for C1q Binding: Microtiter plates were coated with 50 μl of test antibody at concentration range from 20 μg/ml to […] and incubated at 4° C. overnight. The plate was then blocked with 5% nonfat powdered milk for 60 min at 37° C. 50 μl of 5 μg/ml human C1q complement protein (Quidal, SanDiego) was added to each well and inclubated for 60 min at 37° C. 50 μl of 1:1000 dilution of anti-complement C1q antibody (Biodesign) was added to each well and incubated for 60 min at 37° C. 50 μl of 1:1000 dilution of donkey anti-sheep/goat antibody-conjugated HRP (PIERCE) was added to each well and incubated for 60 min at 37° C. Detection was carried out by adding 30 μl of tetramethylbenzidine (TMB) substrate (Pierce) followed by neutralization with 30 μl of 0.2 M H₂SO₄. The absorbance was read at 450 nm.

Assay [3] deals with T3, FcγRIIIA (soluble receptor used as analyte in the BIAcore runs) (human, UniProt P08637 17-208).
T3 construct: extracellular domain; The BIAcore methods only say 'FcγRIIIA'; also called FcγIIIA
The assay can be described thus: SPR (BIAcore 3000), IgG amine-coupled to CM5, soluble FcγRIIIA injected; Scatchard plot of Req; Run 3. As for the experimental part:
(§1) FcγRIIIA was serially diluted in 0.01 M HEPES pH 7.4 containing 0.15 M NaCl, 3 mM EDTA and 0.005% P20, at concentrations ranging from 16 uM down to 7.8 nM. Duplicate injections of each concentration were made. All binding experiments were performed at 25° C., and at a flow rate of 10 uL/min. Binding was monitored for 25 min. Following each injection of FcγRIIIA, the IgG surfaces were regenerated with a 30 sec. pulse of 5 mM HCl. FcγRIIIA was also passed over a blank reference cell which is connected, in series, to the IgG-containing flow cells. The steady-state binding curves were also corrected for injection artifacts by subtraction of buffer injections. This doubly-corrected data was then fit to a steady-state isotherm provided by the instrument manufacturer (Pharmacia Biosensor, Uppsala, Sweden) to derive the respective equilibrium binding constants (KD). Separately, a Scatchard plot of the Req data from each IgG surface was constructed to confirm the results of the binding isotherms.
For orientation: Surface plasmon resonance follows binding to a sensor surface in real time, without labels.

In assay [4] the target is T3, FcγRIIIA (soluble receptor used as …). The assay can be described thus: SPR (BIAcore 3000), IgG amine-coupled to CM5, soluble FcγRIIIA injected; steady-state isotherm; Run 3. The procedure:
as §1

For assay [5] the target is unchanged. The assay can be described thus: SPR (BIAcore 3000), Run 3; calculated from isotherm KD values against wild type 3F2. The procedure:
as §1

T1 sequence (P08637 17-208 limits assumed): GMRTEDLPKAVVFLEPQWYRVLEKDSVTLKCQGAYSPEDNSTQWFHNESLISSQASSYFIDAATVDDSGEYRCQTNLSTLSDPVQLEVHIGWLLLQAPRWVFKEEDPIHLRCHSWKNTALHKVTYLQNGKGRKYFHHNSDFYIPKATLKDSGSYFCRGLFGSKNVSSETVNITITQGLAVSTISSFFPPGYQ
T3 sequence (P08637 17-208): as the sequence (P08637 17-208 limits assumed) above
T2 sequence (P02745 23-245 limits assumed, chain 1 of 3): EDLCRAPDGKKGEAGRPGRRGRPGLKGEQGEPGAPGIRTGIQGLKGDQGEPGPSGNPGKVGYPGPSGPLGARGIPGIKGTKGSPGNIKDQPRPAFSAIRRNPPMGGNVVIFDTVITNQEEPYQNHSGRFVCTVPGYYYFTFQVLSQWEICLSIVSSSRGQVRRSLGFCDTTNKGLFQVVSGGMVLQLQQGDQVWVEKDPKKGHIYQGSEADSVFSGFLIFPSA
T2 sequence (P02746 28-253 limits assumed, chain 2 of 3): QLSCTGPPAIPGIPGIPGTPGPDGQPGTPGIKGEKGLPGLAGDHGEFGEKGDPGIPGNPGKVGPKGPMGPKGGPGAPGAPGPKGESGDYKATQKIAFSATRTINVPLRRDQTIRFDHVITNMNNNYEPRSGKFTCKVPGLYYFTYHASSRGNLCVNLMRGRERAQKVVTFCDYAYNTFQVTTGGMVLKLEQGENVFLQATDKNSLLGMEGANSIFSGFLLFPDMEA
T2 sequence (P02747 29-245 limits assumed, chain 3 of 3): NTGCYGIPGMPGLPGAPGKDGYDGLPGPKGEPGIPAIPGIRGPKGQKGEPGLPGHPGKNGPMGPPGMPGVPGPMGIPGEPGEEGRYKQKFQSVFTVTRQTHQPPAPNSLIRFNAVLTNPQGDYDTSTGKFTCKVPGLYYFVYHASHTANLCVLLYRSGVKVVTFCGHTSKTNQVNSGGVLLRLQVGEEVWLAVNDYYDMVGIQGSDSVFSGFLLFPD

B1: 3F2 (wild type anti-EphA2 antibody, IgG1) (antibody)
heavy: not shown
VL: AIQLTQSPSSLSASVGDRVTITCRASQSISNNLHWYLQKPGQSPQLLIYYGFQSISGVPSRFSGSGSGTDFTLTISSLQPEDFATYYCQQANSWPLTFGGGTKLEIK
notes: domain: IgG1 heavy chain constant region; 3F2 variable regions placed in the Vitaxin® IgG1 plasmid and made in NS0 cells; The light chain constant region is not described; also called 3F2-wt; 3F2-WT; copies: 2 + 2
In general, EC50 (read off the curve) refers to the midpoint of the concentration-response curve. A high value points to a need for much substance. As usually defined, the Kd is the free concentration of one partner at which half of the binding sites on the other are occupied at equilibrium, for simple one-to-one binding. Read a high Kd as a looser complex. On to B1, for which the concentration for a half-maximal effect (EC50 (read off the curve)) in assay [1] is around 0.2 µg/mL. Moreover, in assay [2], the binding result is recorded as “binds”. Further, the Kd amounted to 14.2 µM in assay [3] and 15.6 µM in assay [4].

B2: 3F2-3M (3F2 Fc variant S239D/A330L/I332E, IgG1) (antibody, name in EU numbering)
heavy: EVQLVESGGGVVRPGGSLRLSCAASGFTVSDYSMNWVRQAPGKGLEWIGFIRNKANAYTTEYSASVKGRFTISRDDSKNTLYLQMNSLKTEDTAVYYCTTYPRYHAMDSWGQGTMVTVSSASTKGPSVFPLAPSSKSTSGGTAALGCLVKDYFPEPVTVSWNSGALTSGVHTFPAVLQSSGLYSLSSVVTVPSSSLGTQTYICNVNHKPSNTKVDKKVEPKSCDKTHTCPPCPAPELLGGPDVFLFPPKPKDTLMISRTPEVTCVVVDVSHEDPEVKFNWYVDGVEVHNAKTKPREEQYNSTYRVVSVLTVLHQDWLNGKEYKCKVSNKALPLPEEKTISKAKGQPREPQVYTLPPSRDELTKNQVSLTCLVKGFYPSDIAVEWESNGQPENNYKTTPPVLDSDGSFFLYSKLTVDKSRWQQGNVFSCSVMHEALHNHYTQKSLSLSPGK
VL: B1 VL
notes: domain: IgG1 heavy chain constant region; Made in NS0 cells; The light chain constant region is not described; also called 3F2 S239D/A330L/I332E; 3M Fc variant; copies: 2 + 2
With B2, the “Fold increase over WT” value in assay [5] was 99 fold. Also, the “EC50 (read off the curve)” value in assay [1] was around 0.05 µg/mL. In addition, the binding result in assay [2] was “binds”. For the same molecule, the figures for the Kd in assay [3] and in assay [4] were 0.162 µM and 0.158 µM, respectively.

B3: 3F2-1M (3F2 Fc variant I332E, IgG1) (antibody, name in EU numbering)
heavy: not shown
VL: B1 VL
notes: domain: IgG1 heavy chain constant region; Made in NS0 cells; The light chain constant region is not described; also called 3F2 I332E; 3F2-IM; copies: 2 + 2
For B3, the “Fold increase over WT” value in assay [5] was 8.8 fold. Moreover, in assay [1], the “EC50 (read off the curve)” value was around 0.05 µg/mL. For the same molecule, the binding result in assay [2] is recorded as “binds”. Besides, the Kd was determined as 1.68 µM in assay [3] and 1.77 µM in assay [4].
